Residue numbers refer to the chain shown, from its start. Where two headings read alike, the source gives them in different places.
Tests used:
human CD16B-His6 (SH) = molecular target: T1, human CD16B-His6 (SH) (human, UniProt O75015 17-200); experiment: antigen ELISA, coated Human CD16B (SH), HRP anti-human IgG
T1 construct: Bought ECD fragment; also called CD16B SH allotype; human CD16B (SH); not shown: six-histidine tag (His6)

[1] = molecular target: T2, human CD16B (NA2) on NK92mi cells (human, UniProt O75015 17-200); experiment: flow cytometry on NK92mi/CD16B (NA2) cells
T2 construct: also called NK92mi/CD16B (NA2); NK92mi/CD16B NA2
T2 chain: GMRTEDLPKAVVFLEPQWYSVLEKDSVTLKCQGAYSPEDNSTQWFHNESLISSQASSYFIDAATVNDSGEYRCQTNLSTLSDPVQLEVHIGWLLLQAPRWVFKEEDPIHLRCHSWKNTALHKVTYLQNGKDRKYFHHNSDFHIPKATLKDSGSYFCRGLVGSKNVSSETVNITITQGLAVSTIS

[2] = molecular target: T3, human CD16B (NA1) on NK92mi cells (human, UniProt O75015 17-200); experiment: flow cytometry on NK92mi/CD16B (NA1) cells; fit not meaningful
T3 construct: also called NK92mi/CD16B (NA1); NK92mi/CD16B NA1
T3 chain: T2 chain with S20R, S49N, N66D, I90V

cyno CD16-His6 [3] = molecular target: T4, cyno CD16-His6 (cyno, UniProt Q8SPW2 17-208); experiment: antigen ELISA, coated Cyno CD16, HRP anti-human IgG; one concentration (paragraph 202 prints 1 mg/ml)
T4 construct: Bought ECD fragment; not shown: six-histidine tag (His6)
T4 sequence (Q8SPW2 17-208): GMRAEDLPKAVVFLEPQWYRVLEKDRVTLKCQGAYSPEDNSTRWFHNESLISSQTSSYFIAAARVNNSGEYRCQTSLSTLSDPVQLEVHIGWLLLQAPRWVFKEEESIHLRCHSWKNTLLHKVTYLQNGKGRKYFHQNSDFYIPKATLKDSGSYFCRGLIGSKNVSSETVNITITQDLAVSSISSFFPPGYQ

human CD16A-His6 (V158) [4] = molecular target: T5, human CD16A-His6 (V158) (human, UniProt P08637 17-208); experiment: antigen ELISA, coated Human CD16A (V158), HRP anti-human IgG; one concentration (paragraph 202 prints 1 mg/ml)
T5 construct: Bought (Sino Biologics) ECD fragment; also called CD16A 158V; human CD16A (V158); not shown: six-histidine tag (His6)

[5] = molecular target: T6, human CD16A (V158) on NK92mi cells (human, UniProt P08637 17-254); experiment: flow cytometry on NK92mi/CD16A cells (V158 by paragraph 201)
T6 construct: NK92mi cells co-transduced with CD16A (V158) and FcRgamma cDNAs; also called NK92mi/CD16A V158; NK92mi/CD16A

[6] = molecular target: T3, human CD16B (NA1) on NK92mi cells; experiment: flow cytometry on live NK92mi/CD16B NA1 cells, 300 nM VHH-Fc
human CD16B-His6 (NA2) [7] = molecular target: T7, human CD16B-His6 (NA2) (human, UniProt O75015 17-200); experiment: SPR; VHH-Fc captured on anti-human Fc surface; row head prints 'KD (nM)', taken as M like the rest of the table
T7 construct: Bought ECD fragment; also called CD16B NA2; human CD16B (NA2); not shown: six-histidine tag (His6)
T7 chain: T2 chain

human CD16B-His6 (NA1) [8] = molecular target: T8, human CD16B-His6 (NA1) (human, UniProt O75015 17-200); experiment: as above
T8 construct: Bought ECD fragment; also called CD16B NA1; human CD16B (NA1); not shown: six-histidine tag (His6)
T8 chain: T2 chain with S20R, S49N, N66D, I90V

[9] = molecular target: T9, human CD16A (F158) on NK92mi cells (human, UniProt P08637 17-254); experiment: flow cytometry on live NK92mi/CD16A 158F cells
T9 construct: NK92mi cells co-transduced with CD16A (F158) and FcRgamma cDNAs; also called NK92mi/CD16A F158

[10] = molecular target: T9, human CD16A (F158) on NK92mi cells; experiment: flow cytometry on NK92mi/CD16A 158F cells
human CD16B-His6 (NA2) [11] = molecular target: T7, human CD16B-His6 (NA2); experiment: SPR; VHH-Fc captured on anti-human Fc surface; row head prints 'KD (nM)', taken as M like the rest of the table
human CD16B-His6 (NA1) [12] = molecular target: T8, human CD16B-His6 (NA1); experiment: as above
[13] = molecular target: T3, human CD16B (NA1) on NK92mi cells; experiment: flow cytometry on NK92mi/CD16B (NA1) cells
cyno CD16-His6 [14] = molecular target: T4, cyno CD16-His6; experiment: SPR; VHH-Fc captured on anti-human Fc surface
human CD16A-His6 (V158) [15] = molecular target: T5, human CD16A-His6 (V158); experiment: SPR; VHH-Fc captured on anti-human Fc surface; row head prints 'KD (nM)', koff/kon shows M
human CD16A-His6 (F158) [16] = molecular target: T10, human CD16A-His6 (F158) (human, UniProt P08637 17-208); experiment: as above
T10 construct: Bought ECD fragment; also called human CD16A (F158); not shown: six-histidine tag (His6)

[17] = molecular target: T9, human CD16A (F158) on NK92mi cells; experiment: flow cytometry, biotinylated VHH-Fc on NK92mi/CD16A 158F cells, without human IgG1 (CB6)
human CD16A-His6 (V158) [18] = molecular target: T5, human CD16A-His6 (V158); experiment: SPR; VHH-Fc captured on anti-human Fc surface; row head prints 'KD (nM)', koff/kon shows M; remark: listed apart in the source
human CD16A-His6 (F158) [19] = molecular target: T10, human CD16A-His6 (F158); experiment: as above; remark: listed apart in the source
[20] = molecular target: T2, human CD16B (NA2) on NK92mi cells; experiment: flow cytometry on live NK92mi/CD16B NA2 cells, 300 nM VHH-Fc
human CD16A-His6 (V158) [21] = molecular target: T5, human CD16A-His6 (V158); experiment: SPR; VHH-Fc captured on anti-human Fc surface
human CD16A-His6 (F158) [22] = molecular target: T10, human CD16A-His6 (F158); experiment: SPR; VHH-Fc captured on anti-human Fc surface
[23] = molecular target: T3, human CD16B (NA1) on NK92mi cells; experiment: flow cytometry, NK92mi/CD16B (NA1) against NK92mi/CD16A cells (weaker on CD16B)
[24] = molecular target: T9, human CD16A (F158) on NK92mi cells; experiment: flow cytometry, biotinylated VHH-Fc on NK92mi/CD16A 158F cells, with 10 mg/ml human IgG1 CB6 as competitor
human CD16A-His6 (V158) [25] = molecular target: T5, human CD16A-His6 (V158); experiment: SPR; VHH-Fc captured on anti-human Fc surface; remark: listed apart in the source
human CD16A-His6 (F158) [26] = molecular target: T10, human CD16A-His6 (F158); experiment: SPR; VHH-Fc captured on anti-human Fc surface; remark: listed apart in the source
cyno CD16-His6 [27] = molecular target: T4, cyno CD16-His6; experiment: SPR; VHH-Fc captured on anti-human Fc surface; column head prints 'KD (nM)', koff/kon shows M

B1: LS21 (scFv)
scFv: EVQLVQSGAEVKKPGESLKVSCKASGYTFTSYYMHWVRQAPGQGLEWMGIINPSGGSTSYAQKFQGRVTMTRDTSTSTVYMELSSLRSEDTAVYYCARGSAYYYDFADYWGQGTLVTVSSGGGGSGGGGSGGGGSQPVLTQPSSVSVAPGQTATISCGGHNIGSKNVHWYQQRPGQSPVLVIYQDNKRPSGIPERFSGSNSGNTATLTISGTQAMDEADYYCQVWDNYSVLFGGGTKLTVL
In the case of B1, the binding result (human CD16B-His6 (SH)) is reported as “no binding”, the EC50 [1] is reported as 0.136 µg/mL and the EC50 [2] is reported as ~155 mg/mL. For the same binder, the binding result (cyno CD16-His6 [3]) was “binds”, the binding result (human CD16A-His6 (V158) [4]) was “binds” and the EC50 [5] was 1.04 µg/mL.

B2: BG523P (VHH-Fc) (VHH)
chain: QVQLVESGGGVVQPGGSLTLSCEASGRTFGSYAVGWFRQALGRGREFVAAIRRSDGTTDYVDSVKGRFTISRDNAKNTVYLQMNSLKPEDTAVYYCAASDSDYEPLGDYWGQGTQVTVSSEPKSSDKTHTCPPCPAPPAAGPSVFLFPPKPKDTLMISRTPEVTCVVVDVSHEDPEVKFNWYVDGVEVHNAKTKPREEQYNSTYRVVSVLTVLHQDWLNGKEYKCKVSNKALAAPIEKTISKAKGQPREPQVYTLPPSREEMTKNQVSLTCLVKGFYPSDIAVEWESNGQPENNYKTTPPVLDSDGSFFLYSKLTVDKSRWQQGNVFSCSVMHEALHNHYTQKSLSLSPGK
notes: Alpaca anti-CD16A VHH fused to a C-terminal human IgG1 mf Fc tag (VHH-Fc); also called parental clone
In the case of B2, the “Binding signal at 300 nM (MFI)” value [6] is reported as 577 MFI, the Kd (human CD16B-His6 (NA2) [7]) is reported as 4.95 µM and the Kd (human CD16B-His6 (NA1) [8]) is reported as 1760 nM. The EC50 [9] was 15.1 nM, the EC50 [10] was 10.6 nM and the “EMAX (MFI)” value [10] was 9920 MFI. It also gave an EC50 [1] of 28.9 µg/mL, a Kd (human CD16B-His6 (NA2) [11]) of 4.26 µM and a Kd (human CD16B-His6 (NA1) [12]) of 1700 nM. The EC50 [13] was 9.52 µg/mL, the koff (cyno CD16-His6 [14]) was 8.09e-05 s⁻¹ and the kon (cyno CD16-His6 [14]) was 280000 M⁻¹ s⁻¹. It also gave a Kd (human CD16A-His6 (V158) [15]) of 0.408 nM, a Kd (human CD16A-His6 (F158) [16]) of 0.402 nM and an EC50 [17] of 1.19 nM. For the same binder, the “EMAX (MFI)” value [17] was 22100 MFI, the Kd (human CD16A-His6 (V158) [18]) was 0.222 nM and the Kd (human CD16A-His6 (F158) [19]) was 0.353 nM. The “Binding signal at 300 nM (MFI)” value [20] was 65 MFI, the koff (human CD16A-His6 (V158) [21]) was 6.22e-05 s⁻¹ and the kon (human CD16A-His6 (V158) [21]) was 280000 M⁻¹ s⁻¹. The koff (human CD16A-His6 (F158) [22]) was 7.88e-05 s⁻¹, the kon (human CD16A-His6 (F158) [22]) was 224000 M⁻¹ s⁻¹ and the EC50 [5] was 0.242 µg/mL. For the same binder, the “fold change of EC50 against CD16A binding” value [23] was ~40 fold, the EC50 [24] was 6.57 nM and the “EMAX (MFI)” value [24] was 21300 MFI. For the same binder, the koff (human CD16A-His6 (V158) [25]) was 0.000113 s⁻¹, the kon (human CD16A-His6 (V158) [25]) was 276000 M⁻¹ s⁻¹ and the koff (human CD16A-His6 (F158) [26]) was 0.000128 s⁻¹. For the same binder, the kon (human CD16A-His6 (F158) [26]) was 319000 M⁻¹ s⁻¹ and the Kd (cyno CD16-His6 [27]) was 0.289 nM.

From patent US20250075002A1 (BEIGENE SWITZERLAND, published 2025)
